In USRE48267E1, “Variants of C-type natriuretic peptide” (priority 2009, dated 2020):
Where a SMILES comes first, the peptide text is derived from it. Bridges are numbered along the chain shown (N, C = ends). Where no end group is shown, it is not given here. [ ]: non-standard residue; d: D form. NMeL = CN[C@@H](CC(C)C)C(=O)O; Tle = CC(C)(C)[C@H](N)C(=O)O

Assays:
[1] = target: Recombinant human NEP (Homo sapiens, UniProt P08473); experiment: in vitro NEP cleavage assay (disappearance of non-cleaved CNP variant)
Sequence of Recombinant human NEP (P08473 whole entry): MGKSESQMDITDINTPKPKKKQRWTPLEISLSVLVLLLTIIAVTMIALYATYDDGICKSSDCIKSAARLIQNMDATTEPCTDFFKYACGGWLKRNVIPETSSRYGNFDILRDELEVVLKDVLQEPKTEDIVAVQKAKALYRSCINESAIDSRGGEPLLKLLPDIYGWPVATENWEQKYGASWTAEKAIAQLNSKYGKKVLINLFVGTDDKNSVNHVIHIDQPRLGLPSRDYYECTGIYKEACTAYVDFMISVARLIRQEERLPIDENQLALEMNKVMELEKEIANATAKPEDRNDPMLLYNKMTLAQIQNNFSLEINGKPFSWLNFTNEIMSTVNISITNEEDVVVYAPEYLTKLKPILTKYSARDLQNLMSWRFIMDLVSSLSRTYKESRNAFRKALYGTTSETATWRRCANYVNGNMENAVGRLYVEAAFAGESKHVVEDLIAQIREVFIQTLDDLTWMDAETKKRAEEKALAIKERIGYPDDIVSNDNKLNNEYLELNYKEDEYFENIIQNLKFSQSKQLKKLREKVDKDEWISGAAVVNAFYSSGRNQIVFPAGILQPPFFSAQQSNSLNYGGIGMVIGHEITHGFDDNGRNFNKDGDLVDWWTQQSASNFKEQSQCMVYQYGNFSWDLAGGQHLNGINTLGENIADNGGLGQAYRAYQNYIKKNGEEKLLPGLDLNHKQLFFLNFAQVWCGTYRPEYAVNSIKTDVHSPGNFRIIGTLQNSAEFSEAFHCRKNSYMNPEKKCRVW
Method in brief: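 Recombinant human NEP (1 ug/mL final) incubated with 100 uM CNP variant in 0.1 M Tris, pH 7, at 37° C for various times, then quenched with EDTA (10 mM final) and heat. Samples reduced and analysed by HPLC and mass spectrometry. Half-life derived from loss of intact variant over time.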

[2] = target: T1, NPR-B (Mus musculus, UniProt Q6VVW5); experiment: stimulation of cGMP production in NIH3T3 cells; assay type: cell-based, murine; settings: normalized to cell number and cGMP production in the presence of 1 uM wtCNP22
T1 construct: Murine NIH3T3 cells express endogenously the CNP signaling receptor, NPR-B; endogenous in cells; host or cells: NIH3T3
T1 sequence (Q6VVW5 17-1047): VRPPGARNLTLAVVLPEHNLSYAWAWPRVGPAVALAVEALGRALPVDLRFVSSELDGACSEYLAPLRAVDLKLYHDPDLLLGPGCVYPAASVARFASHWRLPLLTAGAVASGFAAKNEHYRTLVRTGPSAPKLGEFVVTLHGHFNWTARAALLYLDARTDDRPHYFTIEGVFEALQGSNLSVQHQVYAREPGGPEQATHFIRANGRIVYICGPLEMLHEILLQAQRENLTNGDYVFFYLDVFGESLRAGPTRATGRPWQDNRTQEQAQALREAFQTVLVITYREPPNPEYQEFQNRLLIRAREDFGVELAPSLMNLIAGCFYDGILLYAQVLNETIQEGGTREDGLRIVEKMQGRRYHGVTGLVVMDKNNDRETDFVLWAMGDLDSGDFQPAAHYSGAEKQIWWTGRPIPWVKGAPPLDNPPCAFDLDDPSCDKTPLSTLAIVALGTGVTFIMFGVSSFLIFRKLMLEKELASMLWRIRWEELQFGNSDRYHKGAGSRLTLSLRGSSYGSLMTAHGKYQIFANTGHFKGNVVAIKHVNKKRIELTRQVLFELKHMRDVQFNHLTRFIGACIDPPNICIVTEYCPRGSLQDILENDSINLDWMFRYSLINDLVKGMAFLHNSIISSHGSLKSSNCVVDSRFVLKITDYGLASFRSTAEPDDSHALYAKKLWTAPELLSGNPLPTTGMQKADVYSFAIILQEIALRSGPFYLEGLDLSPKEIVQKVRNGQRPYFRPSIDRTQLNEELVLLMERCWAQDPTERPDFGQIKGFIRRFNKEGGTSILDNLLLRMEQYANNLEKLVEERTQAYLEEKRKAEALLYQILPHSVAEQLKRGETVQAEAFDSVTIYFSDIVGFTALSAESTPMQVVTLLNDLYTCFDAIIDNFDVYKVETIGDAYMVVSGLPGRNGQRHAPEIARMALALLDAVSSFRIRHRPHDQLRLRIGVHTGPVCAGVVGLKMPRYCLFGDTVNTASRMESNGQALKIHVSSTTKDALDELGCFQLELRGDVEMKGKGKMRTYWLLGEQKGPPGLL
Method: To determine the functional activity of CNP variants, the production of cGMP was measured in NIH3T3 cells exposed to the CNP variants. Murine NIH3T3 cells express endogenously the CNP signaling receptor, NPR-B, which shares 98% protein sequence identity with human NPR-B. NIH3T3 cells were cultured in high glucose Dulbecco's Modified Eagle Medium supplemented with 10% fetal calf serum and antibiotics at 37° C. with 5% CO2). Twenty four to 48 hours prior to signaling, cells were passaged to 12-well plates with a density of 2-5×10^5 cells per well at the time of the assay. CNP variants were resuspended in 1 mM HCl to a stock concentration of 1 mg/mL (455 uM for wtCNP22) and subsequently diluted to a 30 uM working stock solution with phosphate-buffered saline (PBS). Ten-fold serial dilutions were prepared in phosphate-buffered saline. Culture medium was removed from the cells and replaced with 0.4 mL PBS/Dulbecco's modified Eagle medium (50/50, v/v) containing 0.75 mM isobutylmethylxanine. Plates were incubated at 37° C., 5% CO2 for 15 minutes before addition of 0.2 mL CNP variant in PBS and continued incubation at 37° C. for 15 minutes. Reactions were stopped by the addition of 0.2 mL lysis buffer supplied with the CatchPoint cGMP assay kit (Molecular Devices), and cGMP production was determined with the CatchPoint cGMP Assay (Molecular Devices). All stimulation experiments were performed in duplicate.
Tables 1-4 summarize the ability of CNP variants having backbone or side chain modifications, amino acid substitutions, N-terminal amino acid extensions, and/or N-terminal PEGylation, respectively, to stimulate cGMP production in NIH3T3 cells. In all four tables, the values for cGMP production in NIH3T3 cells exposed to 10 nM or 1 uM CNP variant are normalized to cell number and cGMP production in the presence of 1 uM wtCNP22.

[3] = target: T2, NPR-B (natriuretic peptide receptor B), murine, expressed endogenously on NIH3T3 cells (murine, UniProt Q6VVW5 17-1047); experiment: cell-based or functional assay
T2 sequence (looked up): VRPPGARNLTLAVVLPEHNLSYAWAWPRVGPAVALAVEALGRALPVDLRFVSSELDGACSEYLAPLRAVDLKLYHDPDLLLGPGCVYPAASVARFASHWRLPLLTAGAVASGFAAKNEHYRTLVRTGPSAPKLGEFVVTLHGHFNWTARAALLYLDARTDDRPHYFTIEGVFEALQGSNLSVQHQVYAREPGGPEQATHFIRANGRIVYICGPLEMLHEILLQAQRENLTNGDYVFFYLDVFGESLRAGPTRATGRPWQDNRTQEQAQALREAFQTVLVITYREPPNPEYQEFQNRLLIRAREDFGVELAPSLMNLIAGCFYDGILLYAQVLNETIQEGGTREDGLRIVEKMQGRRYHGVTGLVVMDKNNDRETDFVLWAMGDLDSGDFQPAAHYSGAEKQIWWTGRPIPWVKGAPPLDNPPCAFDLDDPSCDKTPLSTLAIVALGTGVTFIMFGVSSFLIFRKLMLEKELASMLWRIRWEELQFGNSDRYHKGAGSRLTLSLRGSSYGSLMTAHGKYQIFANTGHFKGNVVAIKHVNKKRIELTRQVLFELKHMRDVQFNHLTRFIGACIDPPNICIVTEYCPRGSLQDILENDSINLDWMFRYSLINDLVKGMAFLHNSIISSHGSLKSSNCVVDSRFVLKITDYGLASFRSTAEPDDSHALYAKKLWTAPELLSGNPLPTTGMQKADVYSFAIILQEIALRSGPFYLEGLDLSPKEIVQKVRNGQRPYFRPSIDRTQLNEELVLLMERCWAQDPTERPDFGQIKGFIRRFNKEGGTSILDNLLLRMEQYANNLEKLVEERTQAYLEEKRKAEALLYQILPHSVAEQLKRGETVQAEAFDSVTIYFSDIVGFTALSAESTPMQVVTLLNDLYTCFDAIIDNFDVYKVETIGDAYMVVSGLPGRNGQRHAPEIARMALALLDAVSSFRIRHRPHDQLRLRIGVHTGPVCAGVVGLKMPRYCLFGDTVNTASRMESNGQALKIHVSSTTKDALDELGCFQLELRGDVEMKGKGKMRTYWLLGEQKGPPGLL

CC[C@H](C)[C@@H]1NC(=O)[C@H](CCCNC(=N)N)NC(=O)[C@H](CC(=O)O)NC(=O)[C@H](CC(C)C)NC(=O)[C@H](CCCCN)NC(=O)[C@H](CC(C)C)NC(=O)CNC(=O)[C@H](Cc2ccccc2)NC(=O)[C@@H](NC(=O)CNC(=O)[C@H](CCCNC(=N)N)NC(=O)[C@H](CO)NC(=O)[C@H](CC(C)C)NC(=O)CN)CSSC[C@@H](C(=O)O)NC(=O)CNC(=O)[C@H](CC(C)C)NC(=O)CNC(=O)[C@H](CO)NC(=O)[C@H](CCSC)NC(=O)[C@H](CO)NC(=O)[C@H](CO)NC1=O [Analog BK, CNP22, K4R, G15S] (H-GLSRGCFGLKLDRISSMSGLGC-OH; disulfide 6-22; N-terminus and C-terminus assumed)
resistance to NEP cleavage (in words) [1]: greatest resistance to NEP cleavage
NEP Cleavage (t1/2, min) ([1]; 100 uM peptide, 1 ug/mL NEP, 0.1 M Tris pH 7, 37° C., adjusted t1/2, CNP22 normalized to 80 min): ≥160 min
cGMP Response rel. to 1 uM CNP22, 10 nM ([2]; NIH3T3 cells exposed to 10 nM peptide): 13 ± 1
cGMP Response rel. to 1 uM CNP22, 1 uM ([2]; NIH3T3 cells exposed to 1 uM peptide): 71 ± 11

B1: CNP22, N-methyl-L9 (peptide)
peptide: GLSKGCFG[NMeL]KLDRIGSMSGLGC
modifications: ends and bridges not checked
cGMP response rel. to 1 uM CNP22; 10 nM peptide, NIH3T3 cells [3]: 2 rel. to 1 uM CNP22 (100)
cGMP response rel. to 1 uM CNP22; 1 uM peptide, NIH3T3 cells [3]: 8 rel. to 1 uM CNP22 (100)

B2: CNP22, N-methyl-L9, N-methyl-L11, N-methyl-L20 (peptide)
peptide: GLSKGCFG[NMeL]K[NMeL]DRIGSMSG[NMeL]GC
modifications: ends and bridges not checked
cGMP response rel. to 1 uM CNP22; 10 nM peptide, NIH3T3 cells [3]: 18 rel. to 1 uM CNP22 (100)
cGMP response rel. to 1 uM CNP22; 1 uM peptide, NIH3T3 cells [3]: 10 rel. to 1 uM CNP22 (100)

B3: CNP22, D-F7 (D-Phe) (peptide)
peptide: GLSKGCXGLKLDRIGSMSGLGC
modifications: D-Phe at 7
cGMP response rel. to 1 uM CNP22; 10 nM peptide, NIH3T3 cells [3]: 2 rel. to 1 uM CNP22 (100)
cGMP response rel. to 1 uM CNP22; 1 uM peptide, NIH3T3 cells [3]: 6 rel. to 1 uM CNP22 (100)

B4: CNP22, N-methyl-L11 (peptide)
peptide: GLSKGCFGLK[NMeL]DRIGSMSGLGC
modifications: ends and bridges not checked
cGMP response rel. to 1 uM CNP22; 10 nM peptide, NIH3T3 cells [3]: 10 rel. to 1 uM CNP22 (100)
cGMP response rel. to 1 uM CNP22; 1 uM peptide, NIH3T3 cells [3]: 51 rel. to 1 uM CNP22 (100)

B5: CNP22, 3-chloro-F7 (peptide)
peptide: GLSKGCXGLKLDRIGSMSGLGC
modifications: 3-Cl-Phe at 7
cGMP response rel. to 1 uM CNP22; 10 nM peptide, NIH3T3 cells [3]: 17 rel. to 1 uM CNP22 (100)
cGMP response rel. to 1 uM CNP22; 1 uM peptide, NIH3T3 cells [3]: 93 rel. to 1 uM CNP22 (100)

B6: CNP22 (wild-type human CNP-22) (peptide)
peptide: GLSKGCFGLKLDRIGSMSGLGC
cGMP response rel. to 1 uM CNP22; 10 nM peptide, NIH3T3 cells [3]: 46 rel. to 1 uM CNP22 (100)
cGMP response rel. to 1 uM CNP22; 1 uM peptide, NIH3T3 cells [3]: 100 rel. to 1 uM CNP22 (100)

B7: CNP22, N-methyl-L9, N-methyl-L11 (peptide)
peptide: GLSKGCFG[NMeL]K[NMeL]DRIGSMSGLGC
modifications: ends and bridges not checked
cGMP response rel. to 1 uM CNP22; 10 nM peptide, NIH3T3 cells [3]: 1 rel. to 1 uM CNP22 (100)
cGMP response rel. to 1 uM CNP22; 1 uM peptide, NIH3T3 cells [3]: 11 rel. to 1 uM CNP22 (100)

B8: CNP22, t-butyl-G8 (peptide)
peptide: GLSKGCF[Tle]LKLDRIGSMSGLGC
modifications: ends and bridges not checked
cGMP response rel. to 1 uM CNP22; 10 nM peptide, NIH3T3 cells [3]: 2 rel. to 1 uM CNP22 (100)
cGMP response rel. to 1 uM CNP22; 1 uM peptide, NIH3T3 cells [3]: 18 rel. to 1 uM CNP22 (100)

B9: CNP22, N-methyl-F7 (methylated amide) (peptide)
peptide: GLSKGCXGLKLDRIGSMSGLGC
modifications: N-methyl-Phe at 7
cGMP response rel. to 1 uM CNP22; 10 nM peptide, NIH3T3 cells [3]: 2 rel. to 1 uM CNP22 (100)
cGMP response rel. to 1 uM CNP22; 1 uM peptide, NIH3T3 cells [3]: 38 rel. to 1 uM CNP22 (100)

B10: D-CNP22 (all D-amino acids) (peptide)
peptide: G[dL][dS][dK]G[dC][dF]G[dL][dK][dL][dD][dR][dI]G[dS][dM][dS]G[dL]G[dC]
modifications: ends and bridges not checked
cGMP response rel. to 1 uM CNP22; 10 nM peptide, NIH3T3 cells [3]: 2 rel. to 1 uM CNP22 (100)
cGMP response rel. to 1 uM CNP22; 1 uM peptide, NIH3T3 cells [3]: 1 rel. to 1 uM CNP22 (100)

B11: CNP22, N-methyl-L20 (peptide)
peptide: GLSKGCFGLKLDRIGSMSG[NMeL]GC
modifications: ends and bridges not checked
cGMP response rel. to 1 uM CNP22; 10 nM peptide, NIH3T3 cells [3]: 2 rel. to 1 uM CNP22 (100)
cGMP response rel. to 1 uM CNP22; 1 uM peptide, NIH3T3 cells [3]: 5 rel. to 1 uM CNP22 (100)

B12: CNP22, N-methyl-L9, N-methyl-L20 (peptide)
peptide: GLSKGCFG[NMeL]KLDRIGSMSG[NMeL]GC
modifications: ends and bridges not checked
cGMP response rel. to 1 uM CNP22; 10 nM peptide, NIH3T3 cells [3]: 1 rel. to 1 uM CNP22 (100)
cGMP response rel. to 1 uM CNP22; 1 uM peptide, NIH3T3 cells [3]: 1 rel. to 1 uM CNP22 (100)
